Source: patent publication US20090098175A1 (AFFINERGY, published 2009)
Where no end group is shown, it is not given here. [ ]: non-standard residue; d: D form. The star is where a group is joined. Biotin = O=C1N[C@H]2[C@H](CS[C@H]2CCCCC(=O)*)N1

B1: SEQ ID NO 2 (peptide)
peptide: SSGGVGGWALFETLRGKEVSR
modifications: not fully specified (residues 1, 2, 20, 21); printed as ssGGVGGWALFETLRGKEVsr; also: biotinylated, site not given here
B2: 780P (peptide)
chain 1: SWWGFWNGSAAPVWSR
chain 2: SSGGVGGWALFETLRGKEVSR
chain 3: GSSGK(Biotin)
modifications: not fully specified (some residues, C-terminus); also: chains 1-3 joined as one linear peptide (67-GSSG-2-GSSGK)

Legend:
TGF-β3 = biological target: T1, TGF-β3 (UniProt P10600 301-412); test: plate assay: biotinylated peptide on streptavidin plate, growth factor titrated, antibody/AP detection
T1 sequence (looked up): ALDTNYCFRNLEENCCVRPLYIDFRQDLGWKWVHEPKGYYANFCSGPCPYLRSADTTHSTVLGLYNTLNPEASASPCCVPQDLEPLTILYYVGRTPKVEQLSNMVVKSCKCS
Experimental: (§1) Briefly, peptides comprising an amino acid sequence of each of SEQ ID NOs: 1-3 were biotinylated to facilitate immobilization on streptavidin-coated 96-well plates. The microtiter plates were coated with streptavidin by adding 50 μl of a 10 μg/ml streptavidin solution in 0.1 M NaHCO₃, and incubating the plates for at least 3 hours. The plate wells were blocked by adding 150 μl of a 1% BSA solution in 0.1 NaHCO₃, and the plates were stored at 4° C. until needed. Before use, the streptavidin plates were washed extensively in buffer-T. Peptides were then added at 20 pmol per well in 100 μl of high-salt buffer-T (containing 500 mM NaCl), and then incubated for 1 hour at room temperature with shaking. 150 μl of 0.5 mM biotin in H₂O was added to block the remaining streptavidin sites, and plates were incubated for an additional hour. Plates were then washed with TBS-T to remove the excess biotin and peptide. Serial dilutions of growth factor (including fibrous connective tissue-inducing growth factors GDF-7, GDF-5, BMP-2, and BMP-6,; and growth factors other than fibrous connective tissue-inducing growth factors, such as BMP-5, TGF-β, TGF-β3, or PDGF-BB) in high-salt buffer-T were added (100 μl) to each well, representing a range of concentrations between 0.01 nM and 100 nM. Plates were incubated for 1 hour at room temperature with shaking prior to washing several times with TBS-T. Growth factors were then detected using 100 μl of the appropriate dilutions of primary antibodies specific for the growth factor being detected. After washing with buffer-T, 100 μl of alkaline phosphatase-conjugated secondary antibody was added to each well and incubated at room temperature for 45 minutes. Excess secondary antibody was removed by repeated washes with buffer-T, and the amount of alkaline phosphatase remaining in the well was detected using a pNPP (para-nitrophenylphos-phate) colorimetric enzymatic assay. The amount of growth factor captured by the peptides was determined by measuring the absorbance at 405 nm of the colored product of the alkaline phosphatase reaction.

PDGF-BB = biological target: T2, PDGF-BB (UniProt P01127 82-190); test: as above
T2 construct: also called platelet-derived growth factor
Experimental: as §1

TGF-β1 = TGF-β1 (UniProt P01137 279-390); test: as above
Experimental: as §1

GDF-7 [1] = biological target: T3, GDF-7 (UniProt Q7Z4P5 322-450, limits assumed); test: plate assay: biotinylated peptide on streptavidin plate, growth factor titrated 0.01-100 nM, antibody/AP detection
T3 construct: also called BMP-12; growth and differentiation factor 7
T3 sequence (looked up): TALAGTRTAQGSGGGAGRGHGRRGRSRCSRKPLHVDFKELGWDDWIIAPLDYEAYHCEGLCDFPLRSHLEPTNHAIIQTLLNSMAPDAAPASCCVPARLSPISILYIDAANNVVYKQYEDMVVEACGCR
Experimental: as §1

GDF-5 = biological target: T4, GDF-5 (UniProt P43026 382-501); test: as above
T4 construct: also called BMP-14
T4 sequence (looked up): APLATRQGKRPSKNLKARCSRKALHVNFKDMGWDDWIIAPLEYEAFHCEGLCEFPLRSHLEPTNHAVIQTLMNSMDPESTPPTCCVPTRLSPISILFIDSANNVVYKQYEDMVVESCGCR
Experimental: as §1

BMP-2 = biological target: T5, BMP-2 (UniProt P12643 283-396); test: as above
T5 construct: also called bone morphogenetic protein 2
Experimental: as §1

BMP-6 = biological target: T6, BMP-6 (UniProt P22004 382-513, limits assumed); test: as above
T6 construct: also called bone morphogenetic protein 6
T6 sequence (looked up): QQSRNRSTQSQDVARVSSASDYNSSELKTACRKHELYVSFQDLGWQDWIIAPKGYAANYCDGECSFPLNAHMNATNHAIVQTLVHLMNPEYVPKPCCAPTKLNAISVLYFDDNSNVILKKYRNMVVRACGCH
Experimental: as §1

BMP-5 = biological target: T7, BMP-5 (UniProt P22003 317-454, limits assumed); test: as above
T7 construct: also called bone morphogenetic protein 5
T7 sequence (looked up): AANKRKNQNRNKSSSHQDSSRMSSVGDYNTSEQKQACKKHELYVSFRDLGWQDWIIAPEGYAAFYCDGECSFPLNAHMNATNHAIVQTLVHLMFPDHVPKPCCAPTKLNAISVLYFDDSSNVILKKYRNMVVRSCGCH
Experimental: as §1

GDF-7 [2] = biological target: T8, GDF-7 (UniProt Q7Z4P5 322-450); test: GDF-7 capture on sutures
T8 chain: T3 sequence (looked up)

TGF-β1, sequence (P01137 279-390 limits assumed): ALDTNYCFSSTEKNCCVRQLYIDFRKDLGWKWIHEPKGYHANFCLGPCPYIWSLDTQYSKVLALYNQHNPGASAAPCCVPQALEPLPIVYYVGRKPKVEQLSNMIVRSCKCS
T5 sequence (P12643 283-396 limits assumed): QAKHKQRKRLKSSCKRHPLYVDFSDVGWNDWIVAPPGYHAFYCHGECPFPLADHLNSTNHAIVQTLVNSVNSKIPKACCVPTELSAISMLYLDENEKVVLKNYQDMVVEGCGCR
T2 sequence (P01127 82-190 limits assumed): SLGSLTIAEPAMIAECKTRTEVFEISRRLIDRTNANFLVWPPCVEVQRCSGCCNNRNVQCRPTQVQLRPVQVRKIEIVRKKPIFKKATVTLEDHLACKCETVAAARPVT

Row | Binder | binding result (TGF-β3) | binding result (PDGF-BB) | binding result (TGF-β1) | EC50 (GDF-7 [1]) [nM] | EC50 (GDF-5) [nM] | EC50 (BMP-2) [nM] | EC50 (BMP-6) [nM] | EC50 (BMP-5) [nM] | EC50 (GDF-7 [2]) [nM]
1 | [code s][code s]GPREIWDSLVGVVNPGW[code s][code r] (also: biotinylated, site not given here) [SEQ ID NO 1] | no binding (tested: growth factor 0.01 nM to 100 nM) | no binding (tested: growth factor 0.01 nM to 100 nM) | no binding (tested: growth factor 0.01 nM to 100 nM) | < 1 | < 10 | < 10 | < 10 | < 100 | –
2 | [code s][code s]VAEWALRSWEGMRVGEA[code s][code r] (also: biotinylated, site not given here) [SEQ ID NO 3] | no binding (tested: growth factor 0.01 nM to 100 nM) | no binding (tested: growth factor 0.01 nM to 100 nM) | no binding (tested: growth factor 0.01 nM to 100 nM) | < 1 | < 10 | < 10 | < 10 | < 100 | –
3 | B1 | no binding (tested: growth factor 0.01 nM to 100 nM) | no binding (tested: growth factor 0.01 nM to 100 nM) | no binding (tested: growth factor 0.01 nM to 100 nM) | < 1 | < 10 | < 10 | < 10 | < 100 | –
4 | B2 | – | – | – | – | – | – | – | – | > 100
